Reference: publication doi:10.1101/2021.04.07.438776

Molecular target: N-terminal 6X-His-Tagged Caspar (Drosophila)
Assay: SEC

A stoichiometry N of 2 was found for “N-terminal 6X-His-Tagged Caspar (natural protein)” in this work.
